Experimental data taken from paper PMC3680380, “Functional Characterization of the Cardiac Ryanodine Receptor Pore-Forming Region” (PLoS ONE, 2013).

Biological target: the molecule itself
Assay: SEC; analytical gel filtration, HiLoad 16/60 Superdex 200, 50 mM Tris, 150 mM KCl, pH 8.0, 0.1% LDAO; calibrated with soluble protein standards (B-amylase, carbonic anhydrase, cytochrome c); elution at 72 ml against 71 ml expected for a tetramer

B1: human cardiac ryanodine receptor (RyR2) pore-forming region (domain or fragment, UniProt Q92736 4758-4967, looked up)
chain: SSVTHNGKQLVLTVGLLAVVVYLYTVVAFNFFRKFYNKSEDGDTPDMKCDDMLTCYMFHMYVGVRAGGGIGDEIEDPAGDEYEIYRIIFDITFFFFVIVILLAIIQGLIIDAFGELRDQQEQVKEDMETKCFICGIGNDYFDTVPHGFETHTLQEHNLANYLFFLMYLINKDETEHTGQESYVWKMYQERCWEFFPAGDCFRKQYEDQLN
notes: Cardiac ryanodine receptor RyR2, human, pore-forming region, residues 4758-4967 (printed as 209 residues), up to the natural C-terminus; 27.3 kDa with the tag; also called hRyR2-PFR; RyR2-PFR; source: E. coli Rosetta (DE3) pLysS, pET19b; membranes solubilised in 1% LDAO, purified (Ni-NTA, Superdex 200 gel filtration in 0.1% LDAO); not shown: deca-His, N-terminal, kept
  stoichiometry N: 4
